Reference: US20050222390A1 (IMMATICS BIOTECHNOLOGIES, published 2005)

Biological target: T1, recombinant HLA-A*0201-molecules (human)
T1 construct: Folded in vitro with the peptides, purified by gel filtration
Experiment: in vitro folding of HLA-A*0201 with peptide, gel filtration

binding result	Binder
binds	ALLNIKVKL (Found in tumors of both patients RCC01 and RCC13; also called keratin 18 peptide) [ALLNIKVKL (keratin 18 365-373)]
binds	SVASTITGV (Also synthesized (Fmoc) for tetramers and pulsing; also called adipophilin-peptide; adipophilin fragment) [SVASTITGV (adipose differentiation-related protein 129-137)]
binds	YVDPVITSI (Found in tumors of both patients RCC01 and RCC13; also synthesized (Fmoc) for tetramers and pulsing; also called c-Met-peptide; c-Met-protooncogene-fragment) [YVDPVITSI (met proto-oncogen 654-662)]
